From US20030206891A1, “Rapamycin-based biological regulation” (ARIAD Gene Therapeutics, Inc., priority 1995, published 2003)

Legend:
[1] = molecular target: 1FRB-p65(361-550) (human) (UniProt P42345); assay: cell-based or functional assay
[2] = molecular target: His6-flag-FKBP protein with FK506 (human); assay: phage display affinity enrichment: 1 µM His6-flag-FKBP plus FK506, Ni-NTA agarose capture, acid elution
[3] = molecular target: His6-flag-FKBP protein alone (ethanol, no drug) (human); assay: phage display affinity enrichment: 1 µM His6-flag-FKBP with ethanol alone, Ni-NTA agarose capture, acid elution
Chain of His6-flag-FKBP protein alone (ethanol, no drug) (human) (chain, as listed by the source limits assumed): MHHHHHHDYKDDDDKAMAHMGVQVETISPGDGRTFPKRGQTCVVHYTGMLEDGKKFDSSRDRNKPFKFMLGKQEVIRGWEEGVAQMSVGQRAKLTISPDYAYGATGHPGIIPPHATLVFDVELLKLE

[4] = molecular target: His6-flag-FKBP protein with rapamycin (human); assay: phage display affinity enrichment: FRAP phagemids mixed with pBC control phagemids, 1 µM His6-flag-FKBP plus rapamycin, Ni-NTA agarose capture, acid elution
Chain of His6-flag-FKBP protein with rapamycin (human) (chain, as listed by the source limits assumed): as above

Chain of His6-flag-FKBP protein with FK506 (human) (chain, as listed by the source limits assumed): as above

Substance: ZFHD1-3FKBP (from UniProt P62942 1-107; P62942 1-107; P62942 1-107)
- SEAP activity of the stable clone at 1100 nM rapamycin (arbitrary fluorescence units) [1]: > 90000
- SEAP activity of the stable clone, no rapamycin (mock transfected cells 47 units) (arbitrary fluorescence units) [1]: 54
- SEAP secretion, enhancement with rapamycin over background [1]: > 1000 fold
- SEAP secretion, transiently transfected HT1080 cells: lowest rapamycin concentration with detectable signal [1]: 0.5 nM
- SEAP secretion, transiently transfected HT1080 cells: rapamycin concentration of the peak [1]: 5 nM

Substance: phagemids displaying FRAP (amino acids 2015-2114) (from UniProt P42345 2015-2114; P03661 216-424)
- fold enrichment of FRAP phage compared to the starting mixture (carb/chlor cfu ratio) [2]: 2.4 fold
- fold enrichment of FRAP phage compared to the starting mixture (carb/chlor cfu ratio) [3]: 1.5 fold
- fold enrichment of FRAP phage compared to the starting mixture (carb/chlor cfu ratio) [4]: 271 fold
